Earlier results in article PMC5700508.

Target: transferrin receptor (Homo sapiens) (UniProt P02786)
Sequence (P02786 101-760): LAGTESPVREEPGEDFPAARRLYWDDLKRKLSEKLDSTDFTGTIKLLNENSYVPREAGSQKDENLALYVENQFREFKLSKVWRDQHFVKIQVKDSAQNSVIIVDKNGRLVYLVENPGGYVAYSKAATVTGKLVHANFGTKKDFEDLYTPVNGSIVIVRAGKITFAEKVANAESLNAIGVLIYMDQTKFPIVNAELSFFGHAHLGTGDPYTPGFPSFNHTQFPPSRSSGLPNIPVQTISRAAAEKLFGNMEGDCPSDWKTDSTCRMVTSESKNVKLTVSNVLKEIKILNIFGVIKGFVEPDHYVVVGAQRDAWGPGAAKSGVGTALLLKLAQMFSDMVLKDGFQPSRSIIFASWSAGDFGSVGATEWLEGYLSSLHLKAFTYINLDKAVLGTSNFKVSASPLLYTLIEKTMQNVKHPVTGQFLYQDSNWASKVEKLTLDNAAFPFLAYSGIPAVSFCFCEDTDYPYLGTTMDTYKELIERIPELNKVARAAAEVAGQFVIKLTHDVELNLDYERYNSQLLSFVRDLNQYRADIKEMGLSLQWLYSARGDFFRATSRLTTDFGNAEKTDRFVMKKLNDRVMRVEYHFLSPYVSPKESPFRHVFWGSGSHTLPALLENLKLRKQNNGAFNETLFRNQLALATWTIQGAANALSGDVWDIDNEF

For T7 peptide, the Kd is listed as 10 nM.
